Assay results published in patent US20240150423A1, “GLP-1 ANALOGUE-MODIFIED DIMERS WITH DIFFERENT CONFIGURATIONS, PREPARATION METHOD THEREOF, AND APPLICATION THEREOF IN TREATMENT OF TYPE II DIABETES” (Nanjing Finepeptide Biopharmaceutical Co.,Ltd, priority 2019, published 2024).
Starred links: 1 amine or outer side, 2 acyl side, 3 side chain; linkers in the order of their positions; H or OH if unused. Groups on a side chain read outwards from the residue. γGlu = O=C(O)[C@H](CCC(=O)[*:2])N[*:1]; oleoyl = alkanoyl with 18 carbons

Test system: Normal Kunming (KM) mice
Assay: multiple OGTT (mOGTT): hypoglycemic duration after a single administration
Type: in vivo
Settings: single injection at the same dose (1.126 nmol), subcutaneous
Source text: • 1. Methods: Normal Kunming (KM) mice (purchased from Guangdong Animal Center) were used for oral glucose tolerance test (OGTT) to obtain the hypoglycemic activity and durability of drug. […] The blood glucose meter and blood glucose test paper were from Bayer […]. The average blood glucose of each group was used as an evaluation standard: When the average blood glucose of experimental group was higher than that of the NaCl control group for two times, the measurement stopped and the hypoglycemic period compared to the blank control group was the effective duration. • 2. Results • 2.1 single OGTTs: after a single administration, the mice were orally administered glucose once and measured the blood glucose from the tail blood at 0, 10, 20, 40, 60 and 120 min. […] The duration of each monomer group was about 1⁄2-1⁄4 of the duration of its corresponding dimer group. […] Therefore, the 2G3 peptide was selected for treating type II diabetes (T2D) in vivo and subsequent experiments.

Row | Molecule | Hypoglycemic duration | Hypoglycemic (day) (monomeric peptides)
1 | 2G9 series 70: disulfide-linked homodimer of monomer SEQ ID NO: 70 (also: disulfide-linked homodimer, feature at 62: C-terminal) HAEGTFTSDVSCYLEGQAAK([γGlu-oleoyl])EFIAWLVRGRGHGEGTFTSDVSSYLEGQAAREFIAWLVRGRG | 11 days | –
2 | 2G2 series 10: disulfide-linked homodimer of monomer SEQ ID NO: 10 (not fully specified; disulfide-linked homodimer; Sequence is synthesized; (20)..(20) Xaa is 26Lys[N-e-(N-a-oleoyl-L-g-glutamyl)]; (31)..(31) N-terminal) chain 1: HAEGTFTSDVCSYLEGQAAXEFIAWLVRGRG chain 2: HAEGTFTSDVCSYLEGQAAXEFIAWLVRGRG | 8 days | –
3 | 2G2 series 18: disulfide-linked homodimer of monomer SEQ ID NO: 18 (not fully specified; disulfide-linked homodimer; Sequence is synthesized; (2)..(2) Xaa is bAla; (20)..(20) Xaa is 26Lys[N-e-(N-a-oleoyl-L-g-glutamyl)]; (31)..(31) N-terminal) chain 1: HXEGTFTSDVCSYLEGQAAXEFIAWLVRGRG chain 2: HXEGTFTSDVCSYLEGQAAXEFIAWLVRGRG | 9 days | –
4 | 2G2 series 15: disulfide-linked homodimer of monomer SEQ ID NO: 15 (not fully specified; disulfide-linked homodimer; Sequence is synthesized; (2)..(2) Xaa is bAib; (20)..(20) Xaa is 26Lys[N-e-(N-a-oleoyl-L-g-glutamyl)]; (31)..(31) N-terminal) chain 1: HXEGTFTSDVCSYLEGQAAXEFIAWLVRGRG chain 2: HXEGTFTSDVCSYLEGQAAXEFIAWLVRGRG | 10 days | –
5 | His-Ala-Glu-Gly-Thr-Phe-Thr-Ser-Asp-Val-Ser-Cys-Tyr-Leu-Glu-Gly-Gln-Ala-Ala-Lys[N-ϵ-(N-α-oleoyl-L-γ-glutamyl)]-Glu-Phe-Ile-Ala-Trp-Leu-Val-Arg-Gly-Arg-Gly-His-Gly-Glu-Gly-Thr-Phe-Thr-Ser-Asp-Val-Ser-S … (peptide) HAEGTFTSDVSCYLEGQAAK([γGlu-oleoyl])EFIAWLVRGRGHGEGTFTSDVSSYLEGQAAREFIAWLVRGRG-OH | – | 5 (G9 peptide) day
